Measurements from the supplement of paper PMC7877785.
± gives the uncertainty stated by the source.

Assay: self-splicing fitness, log relative to wild type (ln ratio); higher = more splicing; Tetrahymena group I intron in knt gene, E. coli kanamycin selection, DiMSum; sequences stand for … in CUCUCU…GGAGGGAAAAGUUAUCAGGCAUGCACCUGGUAGCUAGUCUUUAAACCAAUAGAUUGCAUCGGUUUAAAAGGCAAGACCGUCAAAUUGCGGGAAAGGGGUCAACAGCCGUUCAGUACCAAGUCUCAGGGGAAACUUUGAGAUGGCCUUGCAAAGGGUAUGGUAAUAAGCUGACGGACAUGGUCCUAACCACGCAGCCAAGUCCUAAGUCAACAGAUCUUCUGUUGAUAUGGAUGCAGUUCACAGACUAAAUGUCGGUCGGGGAAGAUGUAUUCUUCUCAUAAGAUAUAGUCGGACCUCUCCUUAAUGGGAGCUAGCGGAUGAAGUGAUGCAACACUGGAGCCGCUGGGAACUAAUUUGUAUGCGAAAGUAUAUUGAUUAGUUUUGGAGUACUCGUGGUCG
Method in brief: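 Library with all eight P1ex-region intron nucleotides randomised, intron inside the knt kanamycin-resistance gene on pET-22b(+), in E. coli BL21(DE3). Cells grew overnight at 37°C or 30°C on LB agar with or without 25 μg/mL kanamycin (plus 100 μg/mL carbenicillin, 50 μM IPTG, 0.2% rhamnose), in six replicate transformations. Pooled colonies were amplicon-sequenced on Illumina HiSeq 2500. DiMSum fitness is the error-weighted combination of wild-type-normalised replicate fold changes, kanamycin versus none.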

Row | Sequence | self-splicing fitness (ln) (30 °C) | self-splicing fitness (ln) (37 °C)
1 | AAUAAGCAAUAUUACGGUCC | -1.47 ± 0.14 | -0.63 ± 0.22
2 | AUCAAGCAAUAUUACGGUUG | -3.05 ± 0.25 | -1.92 ± 0.19
3 | ACCUAGCAAUAUUACGCUGU | -1.54 ± 0.071 | -0.737 ± 0.078
4 | GAACAGCAAUAUUACGUAAG | -1.06 ± 0.083 | -0.059 ± 0.093
5 | GUGAAGCAAUAUUACGGUGC | -1.74 ± 0.27 | -0.977 ± 0.27
6 | UUAAAGCAAUAUUACGCAUG | -0.545 ± 0.12 | 0.368 ± 0.13
7 | AAUGAGCAAUAUUACGUCCG | -4.29 ± 0.39 | -3.13 ± 0.29
8 | AGAUAGCAAUAUUACGGUAA | -1.79 ± 0.2 | -1.34 ± 0.19
9 | CCCCAGCAAUAUUACGAUAU | -3.52 ± 0.2 | -1.58 ± 0.21
10 | UAUGAGCAAUAUUACGACGC | – | -1.38 ± 0.32
11 | UACCAGCAAUAUUACGUGAC | -3.12 ± 0.13 | -1.12 ± 0.14
12 | AGAUAGCAAUAUUACGAGAU | -3.02 ± 0.25 | -1.69 ± 0.27
13 | AUUGAGCAAUAUUACGAAAC | -2.48 ± 0.45 | –
14 | UAUCAGCAAUAUUACGAAUC | -3.49 ± 0.26 | -0.458 ± 0.14
15 | CUAUAGCAAUAUUACGUCGA | -2.18 ± 0.22 | -2.6 ± 0.38
16 | GUCGAGCAAUAUUACGUUUU | -3.92 ± 0.32 | -2.07 ± 0.19
17 | AGAAAGCAAUAUUACGAGGU | -3.59 ± 0.26 | -1.93 ± 0.23
18 | CCGAAGCAAUAUUACGAUUA | -2.53 ± 0.14 | -2.31 ± 0.2
19 | ACUCAGCAAUAUUACGCGUU | -1.91 ± 0.055 | -1.18 ± 0.072
20 | ACGUAGCAAUAUUACGUGGC | -2.94 ± 0.17 | -2.98 ± 0.26
21 | UCUCAGCAAUAUUACGUGCG | -3 ± 0.22 | -1.44 ± 0.18
22 | AAAGAGCAAUAUUACGGCCC | -3.78 ± 0.37 | -1.59 ± 0.34
23 | ACUGAGCAAUAUUACGAUAU | -4.44 ± 0.36 | -2.8 ± 0.2
24 | CUGUAGCAAUAUUACGCGGC | -2.51 ± 0.47 | -2.14 ± 0.3
25 | UCUUAGCAAUAUUACGGACU | -2.76 ± 0.34 | -0.0771 ± 0.26
26 | CGUCAGCAAUAUUACGACUC | -0.282 ± 0.11 | 0.339 ± 0.16

Row | Sequence | self-splicing fitness (ln) (30 °C) | self-splicing fitness (ln) (37 °C)
27 | GCUCAGCAAUAUUACGCUCG | -1.1 ± 0.11 | -1.31 ± 0.18
28 | CACAAGCAAUAUUACGUAAU | -3.79 ± 0.14 | -1.65 ± 0.1
29 | CCGUAGCAAUAUUACGCCGU | -3 ± 0.44 | -2.16 ± 0.27
30 | GUGAAGCAAUAUUACGACGU | 0.815 ± 0.1 | 0.675 ± 0.1
31 | GGAGAGCAAUAUUACGAGGA | -3.52 ± 0.31 | -2.44 ± 0.19
32 | UUACAGCAAUAUUACGUCUU | -1.49 ± 0.069 | -0.819 ± 0.09
33 | AGAGAGCAAUAUUACGCUGG | -3.07 ± 0.27 | -2.4 ± 0.32
34 | UUAGAGCAAUAUUACGAGCG | -0.362 ± 0.17 | -0.824 ± 0.25
35 | CGUGAGCAAUAUUACGUGAC | -4.11 ± 0.36 | –
36 | GAAGAGCAAUAUUACGGGCU | -3.17 ± 0.17 | -3.07 ± 0.28
37 | CACAAGCAAUAUUACGACGU | -2.15 ± 0.086 | -0.614 ± 0.077
38 | GUUUAGCAAUAUUACGGCCA | -1.35 ± 0.14 | -0.725 ± 0.15
39 | UUACAGCAAUAUUACGCGUG | -1.17 ± 0.081 | -0.156 ± 0.093
40 | CAACAGCAAUAUUACGUUAG | -2.13 ± 0.076 | -1.52 ± 0.089
41 | GGAGAGCAAUAUUACGAACU | -1.36 ± 0.31 | -1.92 ± 0.37
42 | GCUAAGCAAUAUUACGAAGG | -1.85 ± 0.11 | -0.743 ± 0.16
43 | CUAGAGCAAUAUUACGGCCA | -2.59 ± 0.49 | –
44 | UGAAAGCAAUAUUACGUGAA | -1.3 ± 0.07 | -1.5 ± 0.085
45 | AGAUAGCAAUAUUACGACUA | -1.03 ± 0.14 | -0.165 ± 0.13
46 | CAGGAGCAAUAUUACGAUUG | -3.77 ± 0.28 | -2.46 ± 0.23
47 | CCUUAGCAAUAUUACGAUGU | -2.14 ± 0.13 | -1.49 ± 0.16
48 | GGCGAGCAAUAUUACGGUAU | -2.08 ± 0.13 | -1.04 ± 0.17
49 | GCGGAGCAAUAUUACGGACG | -3.15 ± 0.47 | -2.33 ± 0.42
50 | CAAAAGCAAUAUUACGCAUG | -3.93 ± 0.19 | -0.824 ± 0.15
51 | AAAGAGCAAUAUUACGUAAA | -3.11 ± 0.15 | -1.42 ± 0.13
52 | UGGAAGCAAUAUUACGCGGC | -2.11 ± 0.26 | -1.08 ± 0.26

Row | Sequence | self-splicing fitness (ln) (30 °C) | self-splicing fitness (ln) (37 °C)
53 | UGUGAGCAAUAUUACGAGUG | -1.4 ± 0.071 | -1.16 ± 0.08
54 | CCGCAGCAAUAUUACGUCCU | -3.12 ± 0.18 | -1.39 ± 0.17
55 | GCCCAGCAAUAUUACGGAUG | -2.15 ± 0.075 | -1.49 ± 0.092
56 | CUCCAGCAAUAUUACGGGCA | – | -2.52 ± 0.27
57 | GGCUAGCAAUAUUACGUAAG | -1.64 ± 0.068 | -0.594 ± 0.094
58 | CUUGAGCAAUAUUACGCCGA | – | -2.7 ± 0.33
59 | CGGAAGCAAUAUUACGAGCG | -1.14 ± 0.098 | -1.11 ± 0.095
60 | CUAAAGCAAUAUUACGGACA | -3.1 ± 0.17 | -2.34 ± 0.21
61 | AGGGAGCAAUAUUACGACUA | -2.2 ± 0.5 | -1.98 ± 0.32
62 | UUCAAGCAAUAUUACGUAAC | – | -2.22 ± 0.42
63 | CCUGAGCAAUAUUACGUUUG | -3.6 ± 0.22 | -2.21 ± 0.18
64 | GACAAGCAAUAUUACGGAAC | -1.94 ± 0.1 | -1.69 ± 0.17
65 | UAUCAGCAAUAUUACGCGAA | -0.515 ± 0.12 | -0.291 ± 0.15
66 | GGCAAGCAAUAUUACGGCUC | -2.55 ± 0.25 | -0.854 ± 0.21
67 | AGAGAGCAAUAUUACGGUCG | -3.33 ± 0.35 | -1.63 ± 0.35
68 | CAGAAGCAAUAUUACGCACA | -1.56 ± 0.077 | -0.438 ± 0.087
69 | UAACAGCAAUAUUACGGUGU | -2.93 ± 0.11 | -2.01 ± 0.12
70 | ACUCAGCAAUAUUACGGAAA | -1.61 ± 0.14 | -1.5 ± 0.16
71 | CAACAGCAAUAUUACGCCAA | -2.36 ± 0.14 | -1.62 ± 0.14
72 | CGGAAGCAAUAUUACGCGAU | -3.28 ± 0.28 | -2.05 ± 0.33
73 | CUGUAGCAAUAUUACGUUAA | -3.31 ± 0.33 | -1.49 ± 0.23
74 | UUUAAGCAAUAUUACGAAGC | -1.88 ± 0.32 | -0.328 ± 0.42
75 | GCUAAGCAAUAUUACGAAGA | -0.925 ± 0.087 | -0.138 ± 0.098
76 | GAAUAGCAAUAUUACGACUC | -0.601 ± 0.13 | -1.34 ± 0.18
77 | CUUUAGCAAUAUUACGUCUA | – | -2.26 ± 0.29
